Test results reported in paper PMC10397247.

Key:
Assay in all cases: two-hybrid library CCmax;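 note: natural log of median RNA to DNA barcode read ratio; higher means stronger binding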
4H94-AA = target: T1, 4H94-AA; conditions: mean of both orientations
T1 chain: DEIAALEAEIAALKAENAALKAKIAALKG

4H3590-AA = target: T2, 4H3590-AA; conditions: mean of both orientations
T2 chain: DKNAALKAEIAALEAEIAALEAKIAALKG

4H3410-AA = target: T3, 4H3410-AA; conditions: mean of both orientations
T3 chain: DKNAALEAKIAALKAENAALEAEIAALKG

O5-AA = target: T4, O5-AA; conditions: mean of both orientations
T4 chain: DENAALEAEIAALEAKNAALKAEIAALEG

4H3130-AA = target: T5, 4H3130-AA; conditions: mean of both orientations
T5 chain: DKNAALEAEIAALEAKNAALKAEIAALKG

O14-AA = target: T6, O14-AA; conditions: mean of both orientations
T6 chain: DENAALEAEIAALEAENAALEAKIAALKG

4H710-AA = target: T7, 4H710-AA; conditions: mean of both orientations
T7 chain: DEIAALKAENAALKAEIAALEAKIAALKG

O3-AA = target: T8, O3-AA; conditions: mean of both orientations
T8 chain: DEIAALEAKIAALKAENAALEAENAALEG

4H485-AA = target: T9, 4H485-AA; conditions: mean of both orientations
T9 chain: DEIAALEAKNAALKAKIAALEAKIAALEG

O13-AA = target: T10, O13-AA; conditions: mean of both orientations
T10 chain: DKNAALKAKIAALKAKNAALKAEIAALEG

4H536-AA = target: T11, 4H536-AA; conditions: mean of both orientations
T11 chain: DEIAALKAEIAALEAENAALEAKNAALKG

4H458-AA = target: T12, 4H458-AA; conditions: mean of both orientations
T12 chain: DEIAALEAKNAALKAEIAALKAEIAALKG

4H3016-AA = target: T13, 4H3016-AA
T13 chain: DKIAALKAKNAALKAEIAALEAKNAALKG

4H570-AA = target: T14, 4H570-AA; conditions: mean of both orientations
T14 chain: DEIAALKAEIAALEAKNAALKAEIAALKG

4H3165-AA = target: T15, 4H3165-AA; conditions: mean of both orientations
T15 chain: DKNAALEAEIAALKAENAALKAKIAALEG

4H850-AA = target: T16, 4H850-AA; conditions: mean of both orientations
T16 chain: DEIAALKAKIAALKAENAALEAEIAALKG

O6-AA = target: T17, O6-AA; conditions: mean of both orientations
T17 chain: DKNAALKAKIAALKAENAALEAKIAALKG

4H384-AA = target: T18, 4H384-AA; conditions: mean of both orientations
T18 chain: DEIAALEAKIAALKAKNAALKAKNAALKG

4H930-AA = target: T19, 4H930-AA; conditions: mean of both orientations
T19 chain: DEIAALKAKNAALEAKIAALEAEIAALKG

O4-AA = target: T20, O4-AA; conditions: mean of both orientations
T20 chain: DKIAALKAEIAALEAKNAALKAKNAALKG

4H909-AA = target: T21, 4H909-AA; conditions: mean of both orientations
T21 chain: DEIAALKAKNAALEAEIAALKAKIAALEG

4H310-AA = target: T22, 4H310-AA; conditions: mean of both orientations
T22 chain: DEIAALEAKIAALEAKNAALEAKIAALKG

4H3697-AA = target: T23, 4H3697-AA; conditions: mean of both orientations
T23 chain: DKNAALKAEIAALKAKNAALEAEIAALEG

P9-AA = target: T24, P9-AA; conditions: mean of both orientations
T24 chain: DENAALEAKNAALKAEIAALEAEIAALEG

4H3865-AA = target: T25, 4H3865-AA; conditions: mean of both orientations
T25 chain: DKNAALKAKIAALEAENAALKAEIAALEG

4H3395-AA = target: T26, 4H3395-AA; conditions: mean of both orientations
T26 chain: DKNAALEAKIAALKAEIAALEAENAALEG

4H3120-AA = target: T27, 4H3120-AA; conditions: mean of both orientations
T27 chain: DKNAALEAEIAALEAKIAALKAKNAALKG

O11-AA = target: T28, O11-AA; conditions: mean of both orientations
T28 chain: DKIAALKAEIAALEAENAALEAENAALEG

4H629-AA = target: T29, 4H629-AA; conditions: mean of both orientations
T29 chain: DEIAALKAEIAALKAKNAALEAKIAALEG

4H797-AA = target: T30, 4H797-AA; conditions: mean of both orientations
T30 chain: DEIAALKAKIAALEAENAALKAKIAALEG

O2-AA = target: T31, O2-AA; conditions: mean of both orientations
T31 chain: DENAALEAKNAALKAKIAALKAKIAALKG

O7-AA = target: T32, O7-AA; conditions: mean of both orientations
T32 chain: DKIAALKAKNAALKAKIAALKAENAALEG

O1-AA = target: T33, O1-AA; conditions: mean of both orientations
T33 chain: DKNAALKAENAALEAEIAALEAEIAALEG

4H891-AA = target: T34, 4H891-AA; conditions: mean of both orientations
T34 chain: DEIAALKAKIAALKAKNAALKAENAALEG

O8-AA = target: T35, O8-AA; conditions: mean of both orientations
T35 chain: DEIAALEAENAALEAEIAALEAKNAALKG

4H3753-AA = target: T36, 4H3753-AA; conditions: mean of both orientations
T36 chain: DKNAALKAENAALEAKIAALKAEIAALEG

P10-AA = target: T37, P10-AA; conditions: mean of both orientations
T37 chain: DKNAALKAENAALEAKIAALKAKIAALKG

4H745-AA = target: T38, 4H745-AA; conditions: mean of both orientations
T38 chain: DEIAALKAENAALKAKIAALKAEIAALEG

4H3381-AA = target: T39, 4H3381-AA; conditions: mean of both orientations
T39 chain: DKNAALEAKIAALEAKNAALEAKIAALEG

DKIAALKAKNAALKAEIAALEAKNAALKG [4H3016-AA]
interaction score (4H94-AA): -0.745
interaction score (4H3590-AA): 0.669
interaction score (4H3410-AA): 0.759
interaction score (O5-AA): -0.896
interaction score (4H3130-AA): -0.405
interaction score (O14-AA): 2
interaction score (4H710-AA): -1.35
interaction score (O3-AA): -0.74
interaction score (4H485-AA): -0.786
interaction score (O13-AA): -1.87
interaction score (4H536-AA): -0.944
interaction score (4H458-AA): -1.13
interaction score (4H3016-AA): -1.56
interaction score (4H570-AA): -1.4
interaction score (4H3165-AA): -1.17
interaction score (4H850-AA): -0.436
interaction score (O6-AA): 0.964
interaction score (4H384-AA): -1.89
interaction score (4H930-AA): -1.32
interaction score (O4-AA): -1.64
interaction score (4H909-AA): -0.857
interaction score (4H310-AA): -0.901
interaction score (4H3697-AA): -0.432
interaction score (P9-AA): -0.637
interaction score (4H3865-AA): -1.38
interaction score (4H3395-AA): -1.1
interaction score (4H3120-AA): -1.33
interaction score (O11-AA): -1.4
interaction score (4H629-AA): -1.28
interaction score (4H797-AA): -1.65
interaction score (O2-AA): -1.29
interaction score (O7-AA): 0.0246
interaction score (O1-AA): -0.276
interaction score (4H891-AA): -1.63
interaction score (O8-AA): 1.56
interaction score (4H3753-AA): 0.667
interaction score (P10-AA): -0.503
interaction score (4H745-AA): 0.997
interaction score (4H3381-AA): -1.11
